Laboratory results taken from US20260167721A1 (ABLEXIS, published 2026).
Substitutions are numbered along the chain they refer to.

B1: Gemtuzumab (antibody, V domains shown)
VH: EVQLVQSGAEVKKPGSSVKVSCKASGYTITDSNIHWVRQAPGQSLEWIGYIYPYNGGTDYNQKFKNRATLTVDNPTNTAYMELSSLRSEDTAFYYCVNGNPWLAYWGQGTLVTVSS
VL: DIQLTQSPSTLSASVGDRVTITCRASESLDNYGIRFLTWFQQKPGKAPKLLMYAASNQGSGVPSRFSGSGSGTEFTLTISSLQPDDFATYYCQQTKEVPWSFGQGTKVEVKR
B2: CD3 × CD33-BspAb105 (bispecific antibody)
chain 1: SYELTQPPSVSVSPGQTARITCSGDALPKKYAYWYQQKSGQAPVLVIYEDSKRPSGIPERFSGSSSGTMATLTISGAQVEDEADYYCYSTDSSGNHRVFGCGTKLTVLGGGGSGGGGSGGGGSGGGGSEVQLVESGGGLVKPGGSLRLSCAASGFTFSYYSMNWVRQAPGKCLEWVSSISRSTTYIYYADSVKGRFTISRDNAKNSLYLQMNSLRAEDTAVYYCARDGKGAIFLDYWGQGTLVTVSSDKTHTCPPCPAPEFEGGPSVFLFPPKPKDTLMISRTPEVTCVVVDVSHEDPEVKFNWYVDGVEVHNAKTKPREEQYNSTYRVVSVLTVLHQDWLNGKEYKCKVSNKALPASIEKTISKAKGQPREPQVYTLPPCREEMTKNQVSLWCLVKGFYPSDIAVEWESNGQPENNYKTTPPVLDSDGSFFLYSKLTVDKSRWQQGNVFSCSVMHEALHNHYTQKSLSLSPGK
chain 2: EVQLVQSGAEVKKPGSSVKVSCKASGYTITDSNIHWVRQAPGQSLEWIGYIYPYNGGTDYNQKFKNRATLTVDNPTNTAYMELSSLRSEDTAFYYCVNGNPWLAYWGQGTLVTVSSASTKGPSVFPLAPSSKSTSGGTAALGCLVKDYFPEPVTVSWNSGALTSGVHTFPAVLQSSGLYSLSSVVTVPSSSLGTQTYICNVNHKPSNTKVDKRVEPKSCDKTHTCPPCPAPEFEGGPSVFLFPPKPKDTLMISRTPEVTCVVVDVSHEDPEVKFNWYVDGVEVHNAKTKPREEQYNSTYRVVSVLTVLHQDWLNGKEYKCKVSNKALPASIEKTISKAKGQPREPQVCTLPPSREEMTKNQVSLSCAVKGFYPSDIAVEWESNGQPENNYKTTPPVLDSDGSFFLVSKLTVDKSRWQQGNVFSCSVMHEALHNRFTQKSLSLSPGK
chain 3: DIQLTQSPSTLSASVGDRVTITCRASESLDNYGIRFLTWFQQKPGKAPKLLMYAASNQGSGVPSRFSGSGSGTEFTLTISSLQPDDFATYYCQQTKEVPWSFGQGTKVEVKRTVAAPSVFIFPPSDEQLKSGTASVVCLLNNFYPREAKVQWKVDNALQSGNSQESVTEQDSKDSTYSLSSTLTLSKADYEKHKVYACEVTHQGLSSPVTKSFNRGEC
B3: CD3 × CD33-BspAb125 (bispecific antibody)
chain 1: not shown
chain 2: B2 chain 2
chain 3: B2 chain 3
B4: High affinity Control (Control Humanized anti-CD3 (high affinity) scFv-Fc knob/TM x gemtuzumab) (bispecific antibody)
chain: EVQLVESGGGLVQPGGSLRLSCAASGFTFSTYAMNWVRQAPGKGLEWVGRIRSKYNNYATYYADSVKGRFTISRDDSKNTLYLQMNSLRAEDTAVYYCVRHGNFGDSYVSWFAYWGQGTLVTVSSGKPGSGKPGSGKPGSGKPGSQAVVTQEPSLTVSPGGTVTLTCGSSTGAVTTSNYANWVQQKPGKSPRGLIGGTNKRAPGVPARFSGSLLGGKAALTISGAQPEDEADYYCALWYSNHWVFGGGTKLTVLGGGGSDKTHTCPPCPAPEFEGGPSVFLFPPKPKDTLMISRTPEVTCVVVDVSHEDPEVKFNWYVDGVEVHNAKTKPREEQYNSTYRVVSVLTVLHQDWLNGKEYKCKVSNKALPASIEKTISKAKGQPREPQVYTLPPCREEMTKNQVSLWCLVKGFYPSDIAVEWESNGQPENNYKTTPPVLDSDGSFFLYSKLTVDKSRWQQGNVFSCSVMHEALHNHYTQKSLSLSPGK
heavy: B2 chain 2
light: B2 chain 3
B5: CD3 × CD33-BspAb115 (bispecific antibody)
chain 1: NFMLTQPHSVSESPGKTVTISCTRTSGSIASNYVQWYQQRPGSSPTTVIYEDNQRPSGVPDRFSGSIDSSSNSASLTISGLKTEDEAAYYCQSYDRSNRVFGCGTKLTVLGGGGSGGGGSGGGGSGGGGSQVQLQESGPGLVKPSETLSLTCTVSGGSISSYYWSWIRQPAGKCLEWIGRIYTSGSTKYNPSLKSRVTMSVDTSKNQFSLKLISVTAADTAVYFCARERIRDLYFDYWGQGTLVTVSSDKTHTCPPCPAPEFEGGPSVFLFPPKPKDTLMISRTPEVTCVVVDVSHEDPEVKFNWYVDGVEVHNAKTKPREEQYNSTYRVVSVLTVLHQDWLNGKEYKCKVSNKALPASIEKTISKAKGQPREPQVYTLPPCREEMTKNQVSLWCLVKGFYPSDIAVEWESNGQPENNYKTTPPVLDSDGSFFLYSKLTVDKSRWQQGNVFSCSVMHEALHNHYTQKSLSLSPGK
chain 2: B2 chain 2
chain 3: B2 chain 3
B6: Low affinity Control (Control Humanized anti-CD3 (low affinity) scFv-Fc knob/TM x gemtuzumab) (bispecific antibody)
chain: B4 chain with A113D
heavy: B2 chain 2
light: B2 chain 3

biological target: T1, CD3 on human donor PBMC / Pan T effector cells (human, UniProt P07766 23-207; P09693 23-182; P04234 22-171; P20963 22-164); test: cell-based or functional assay
T1 sequence (P07766 23-207, chain 1 of 4): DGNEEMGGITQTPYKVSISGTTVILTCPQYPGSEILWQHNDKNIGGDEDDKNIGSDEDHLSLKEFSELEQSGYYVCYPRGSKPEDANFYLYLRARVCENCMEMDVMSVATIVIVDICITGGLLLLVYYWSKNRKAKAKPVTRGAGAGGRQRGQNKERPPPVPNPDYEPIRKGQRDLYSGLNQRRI
T1 sequence (P09693 23-182, chain 2 of 4): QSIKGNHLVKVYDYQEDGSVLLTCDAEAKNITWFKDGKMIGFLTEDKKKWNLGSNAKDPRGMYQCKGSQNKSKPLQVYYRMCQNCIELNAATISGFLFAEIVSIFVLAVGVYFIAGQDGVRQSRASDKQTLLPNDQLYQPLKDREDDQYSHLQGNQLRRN
T1 sequence (P04234 22-171, chain 3 of 4): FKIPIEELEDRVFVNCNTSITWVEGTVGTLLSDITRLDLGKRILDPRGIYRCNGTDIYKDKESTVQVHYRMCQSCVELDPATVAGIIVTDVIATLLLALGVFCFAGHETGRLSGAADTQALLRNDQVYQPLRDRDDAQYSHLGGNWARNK
T1 sequence (P20963 22-164, chain 4 of 4): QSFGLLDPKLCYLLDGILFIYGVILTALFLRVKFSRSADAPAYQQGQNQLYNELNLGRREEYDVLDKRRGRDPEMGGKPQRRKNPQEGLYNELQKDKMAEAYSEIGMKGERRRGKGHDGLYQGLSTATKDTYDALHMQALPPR

Cytokine Release Assay (IL2) Donor 0 EC50 [nM]	Cytokine Release Assay (IL2) Donor 0 gMFI max [gMFI]	Cytokine Release Assay (IL2) Donor 1 gMFI max [gMFI]	Cytokine Release Assay (IL2) Donor 2 gMFI max [gMFI]	Cytokine Release Assay (IL2) Donor 3 gMFI max [gMFI]	Cytokine Release Assay (IL2) Donor 1 EC50 [nM]	Cytokine Release Assay (IL2) Donor 3 EC50 [nM]	Cytokine Release Assay (IL2) Donor 2 EC50 [nM]	Binder
5.36	12500	12900	10700	12200	–	–	–	B1
0.454	16900	13400	15900	18000	0.232	0.141	–	B2
0.105	52800	22300	25100	65800	0.102	–	0.115	B3
0.456	377000	179000	121000	347000	1.64	0.172	16.7	B4
0.206	242000	99300	45200	300000	0.0755	0.0479	0.0806	B5
2.29	24300	18500	15700	21200	10.8	2.92	–	B6

biological target: T1, CD3 on human donor PBMC / Pan T …; test: cell-based or functional assay; remark: another data set of the same source

Cytokine Release Assay (TNFα) Donor 0 gMFI max [gMFI]	Cytokine Release Assay (TNFα) Donor 1 gMFI max [gMFI]	Cytokine Release Assay (TNFα) Donor 2 gMFI max [gMFI]	Cytokine Release Assay (TNFα) Donor 3 gMFI max [gMFI]	Cytokine Release Assay (TNFα) Donor 0 EC50 [nM]	Cytokine Release Assay (TNFα) Donor 2 EC50 [nM]	Cytokine Release Assay (TNFα) Donor 3 EC50 [nM]	Cytokine Release Assay (TNFα) Donor 1 EC50 [nM]	Binder
5310	4430	3680	3960	–	–	–	–	B1
5210	4470	5500	4390	–	–	–	–	B2
39600	5100	12000	17800	0.475	0.054	0.0446	–	B3
231000	113000	125000	129000	0.459	5.98	0.212	13.1	B4
91600	13000	24100	48600	0.0814	0.0452	0.046	0.0553	B5
222000	82800	135000	122000	0.549	24.6	40.7	–	B6
